Experimental data reported in patent publication US20240336686A1 (ELPISCIENCE SUZHOU BIOPHARMA, published 2024).
Like-named read-outs stand apart in the source and are kept apart here.

Key:
[1] = molecular target: T1, Full length human SIRPα v1 with beta-gal fragment (ED) at its C-terminal, in K562 cells (human, UniProt P78324 31-504); assay: cell-based or functional assay
[2] = molecular target: T1, Full length human SIRPα v1 with …; assay: cell-based or functional assay; remark: listed apart in the source
[3] = molecular target: T2, Human SIRPα v2 (human); assay: SPR (Biacore), 1:1 binding model
T2 construct: also called human SIRPα v2 (antigen of the Biacore assay)
Experimental: The humanized antibodies were characterized for binding affinity against human SIRPα v1, human SIRPα v2 using Surface Plasmon Resonance technology (Biacore system). The association and dissociation curves were fit with 1:1 binding model, and the Ka/Kd/KD values for each antibody were calculated.

[4] = molecular target: T3, human SIRPα v1 on CHOK1 cells (human, UniProt P78324 31-504); assay: FACS, CHOK1 cells stably expressing human SIRPα v1
T3 construct: whole, on cells; also called CHOK1-hSIRPα v1; cell surface human SIRPα v1
Excerpt: (§1) Binding activity of the purified chimeric antibodies against human SIRPα variants was detected by FACS assay using CHOK1 cells or 293F cells stably expressing human SIRPα v1 and CHOK1 cells stably expressing human SIRPα v2. […] EC₅₀ and top signal calculated using GraphPad Prism9.0.

[5] = molecular target: T4, human SIRPα v2 on CHOK1 cells (human, UniProt P78324 31-504); assay: FACS, CHOK1 cells stably expressing human SIRPα v2
T4 construct: whole, on cells; also called CHOK1-hSIRPα v2; cell surface human SIRPα v2
Excerpt: as §1

[6] = molecular target: T3, human SIRPα v1 on CHOK1 cells; assay: FACS, CHOK1 cells stably expressing human SIRPα v1; remark: listed apart in the source
[7] = molecular target: T4, human SIRPα v2 on CHOK1 cells; assay: FACS, CHOK1 cells stably expressing human SIRPα v2; remark: listed apart in the source
[8] = molecular target: T5, mFc tagged human SIRPα v1 ECD recombinant protein (human, UniProt P78324 31-373); assay: competitive ELISA; row antibody in excess in solution, coated mAb 025c
T5 construct: extracellular domain; not shown: mouse Fc tag
Experimental: (§2) Competitive ELISA assay was used for epitope binning of purified chimeric antibodies. Briefly excessive competitor antibody and mFc tagged human SIRPα v1 ECD recombinant protein were co-incubated with ELISA microplate coated antibody. After washing, HRP labeled anti-mouse Fc 2nd antibody (Sigma) was added and incubated at 37° C. for 1 hour. Then, 100 μl/well of TMB solution (Biotechnology) was added. After incubation for 15 minutes at room temperature, the reaction was stopped by the addition of 50 μl of 1N HCl. OD 450 nm was read. Competition ratio was calculated. The antibodies that can compete each other for binding to SIRPα may have related binding epitopes.

[9] = molecular target: T5, mFc tagged human SIRPα v1 ECD …; assay: competitive ELISA; row antibody in excess in solution, coated mAb 042c
Experimental: as §2

[10] = molecular target: T5, mFc tagged human SIRPα v1 ECD …; assay: competitive ELISA; row antibody in excess in solution, coated mAb hu1H9G4
Experimental: as §2

[11] = molecular target: T6, human SIRPα v1 ECD recombinant protein (human, UniProt P78324 31-373); assay: competitive ELISA, plate-coated human SIRPα v1 ECD; blocked ligand: mFc tagged human CD47 ECD
T6 construct: extracellular domain; Coated on the ELISA plate
Experimental: (§3) Competitive ELISA assay was used to determine whether the purified chimeric antibodies can block CD47 and SIRPα interaction. Briefly, antibody and mFc tagged human CD47 ECD recombinant protein were co-incubated with ELISA microplate coated human SIRPα v1 ECD or human SIRPα v2 ECD recombinant protein. The concentration of soluble ECD of CD47 is 25 nM, and the concentration of soluble ECD of SIRPα is 20 nM. After washing, HRP labeled anti-mouse Fc 2nd antibody (Sigma) was added and incubated at 37° C. for 1 hour. Then, 100 μl/well of TMB solution (Biotechnology) was added. After incubation for 15 minutes at room temperature, the reaction was stopped by the addition of 50 μl of 1N HCl. OD 450 nm was read. Blocking ratio was determined by blockade of human SIRPα ECD recombinant protein binding to ELISA microplate coated human CD47 ECD recombinant protein. All antibodies as tested can block interaction between human CD47 and different human SIRPα variants.

[12] = molecular target: T7, human SIRPα v2 ECD recombinant protein (human); assay: competitive ELISA, plate-coated human SIRPα v2 ECD; blocked ligand: mFc tagged human CD47 ECD
T7 construct: extracellular domain; Coated on the ELISA plate
Experimental: as §3

[13] = molecular target: T6, human SIRPα v1 ECD recombinant protein; assay: competitive ELISA, plate-coated human SIRPα v1 ECD; blocked ligand: mFc tagged human CD47 ECD; remark: listed apart in the source
Experimental: as §3
(§4) The humanized antibodies were tested for the ability to block CD47 and SIRPα interaction with competitive ELISA assay (refer to methods described above).

[14] = molecular target: T7, human SIRPα v2 ECD recombinant protein; assay: competitive ELISA, plate-coated human SIRPα v2 ECD; blocked ligand: mFc tagged human CD47 ECD; remark: listed apart in the source
Experimental: as §3, §4

[15] = molecular target: T6, human SIRPα v1 ECD recombinant protein; assay: competitive ELISA, plate-coated human SIRPα v1 ECD; blocked ligand: mFc tagged human CD47 ECD; remark: listed apart in the source
Experimental: as §3, with “ECD” for “ECD or human SIRPα v2 ECD”, “protein.” for “protein. The concentration of soluble ECD of CD47 is 25 nM, and the concentration of soluble ECD of SIRPα is 20 nM.”, “protein.” for “protein. All antibodies as tested can block interaction between human CD47 and different human SIRPα variants.”

[16] = molecular target: T3, human SIRPα v1 on CHOK1 cells; assay: competitive FACS, CHOK1 cells stably expressing human SIRPα v1; blocked ligand: mFc tagged human CD47 ECD
Experimental: (§5) Competitive FACS assay was also set up to further compare the blocking activity of the humanized antibodies and some known anti-SIRPα antibodies. Briefly antibody and mFc tagged human CD47 ECD recombinant protein were co-incubated with CHOK1 cells stably expressing human SIRPα v1 or human SIRPα v2. After washing, dye labeled anti-mouse Fc 2nd antibody (Sigma) was added and incubated at 37° C. for 1 hour. Fluorescence intensity was detected. Blocking ratio was determined by blockade of human CD47 ECD recombinant protein binding to SIRPα expressed CHOK1 cells.

[17] = molecular target: T4, human SIRPα v2 on CHOK1 cells; assay: competitive FACS, CHOK1 cells stably expressing human SIRPα v2; blocked ligand: mFc tagged human CD47 ECD
Experimental: as §5

[18] = molecular target: T8, His tagged human SIRPα v1 ECD (human, UniProt P78324 31-373); assay: HDX-MS
T8 construct: extracellular domain; not shown: His tag
T8 sequence (P78324 31-373): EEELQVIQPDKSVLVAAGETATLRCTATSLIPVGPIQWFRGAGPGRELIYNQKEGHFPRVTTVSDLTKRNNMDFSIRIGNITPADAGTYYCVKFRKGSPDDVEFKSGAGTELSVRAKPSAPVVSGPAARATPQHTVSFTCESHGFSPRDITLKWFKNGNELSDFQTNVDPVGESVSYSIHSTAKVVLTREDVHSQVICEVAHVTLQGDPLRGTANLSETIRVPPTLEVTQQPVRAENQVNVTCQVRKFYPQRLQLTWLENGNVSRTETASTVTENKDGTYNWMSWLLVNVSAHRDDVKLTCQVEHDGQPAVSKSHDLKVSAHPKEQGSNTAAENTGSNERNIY

T6 sequence (P78324 31-373): as above
T5 sequence (P78324 31-373): as above
T4 sequence (P78324 other isoform, or with tags, fused parts or gaps limits assumed): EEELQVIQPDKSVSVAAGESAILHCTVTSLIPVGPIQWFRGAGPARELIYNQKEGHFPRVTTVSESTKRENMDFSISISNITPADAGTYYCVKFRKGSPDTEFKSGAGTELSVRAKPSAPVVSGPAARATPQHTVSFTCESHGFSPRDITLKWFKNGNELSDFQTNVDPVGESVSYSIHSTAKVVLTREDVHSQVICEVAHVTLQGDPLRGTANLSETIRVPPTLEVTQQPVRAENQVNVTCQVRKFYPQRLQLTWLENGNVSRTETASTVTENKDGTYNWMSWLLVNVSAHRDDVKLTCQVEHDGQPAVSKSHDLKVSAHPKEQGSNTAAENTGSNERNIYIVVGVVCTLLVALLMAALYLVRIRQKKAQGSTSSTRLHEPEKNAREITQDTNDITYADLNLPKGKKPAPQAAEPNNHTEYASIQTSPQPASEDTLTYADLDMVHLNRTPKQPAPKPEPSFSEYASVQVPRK
T3 sequence (P78324 31-504): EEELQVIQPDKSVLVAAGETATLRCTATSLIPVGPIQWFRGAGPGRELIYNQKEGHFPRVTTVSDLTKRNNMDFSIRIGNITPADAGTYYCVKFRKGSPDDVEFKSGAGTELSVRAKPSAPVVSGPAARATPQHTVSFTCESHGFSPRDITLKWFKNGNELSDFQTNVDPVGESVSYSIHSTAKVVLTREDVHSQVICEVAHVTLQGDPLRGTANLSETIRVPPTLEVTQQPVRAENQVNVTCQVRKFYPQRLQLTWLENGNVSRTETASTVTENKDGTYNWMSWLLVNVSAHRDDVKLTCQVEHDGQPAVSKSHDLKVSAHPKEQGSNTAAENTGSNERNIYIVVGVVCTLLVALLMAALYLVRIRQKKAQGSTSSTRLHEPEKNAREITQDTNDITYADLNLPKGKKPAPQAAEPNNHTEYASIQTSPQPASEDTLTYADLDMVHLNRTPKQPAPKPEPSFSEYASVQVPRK
T1 sequence (P78324 31-504): as above

B1: Anti-SIRPα antibody C25 (antibody, V domains shown)
VH: EVQLQQSGAELVKPGASVKLSCTASGFNIKDYYMHWVKQRTEQGLEWIGRIDPEDGETKYAPKFQGKATITADTSSNTAYLQLSSLTSEDTAVYYCDRGLAYWGQGTLVTVSA
VL: QIVLTQSPAIMSASPGEKVTLTCSASSSVSSSYLYWYQQKPGSSPKLWIYSTSNLASGVPARFSGSGSGTSYSLTISSMEAEDAASYFCHQWSSYPYTFGGGTKLEIK
notes: Mouse variable regions; also called 025c; 025
In the case of B1, the “IC50 (SHP-1 recruitment blocking)” value [1] is reported as 0.28 nM, the “TOP blocking (SHP-1 recruitment)” value [1] is reported as 84.5% and the “IC50 (SHP-1 recruitment blocking)” value [2] is reported as 0.08 nM. For the same binder, the “TOP blocking (SHP-1 recruitment)” value [2] was 87%, the Kd [3] was 1.69 nM and the koff [3] was 0.00254 s⁻¹. For the same binder, the kon [3] was 1.51e+06 M⁻¹ s⁻¹, the EC50 [4] was 1.49 nM and the “TOP MFI” value [4] was 77600 MFI. The EC50 [5] was 1.34 nM, the “TOP MFI” value [5] was 51600 MFI and the EC50 [6] was 1.22 nM. For the same binder, the “TOP MFI” value [6] was 64700 MFI, the EC50 [7] was 0.99 nM and the “TOP MFI” value [7] was 53000 MFI. For the same binder, the “% Competition” value [8] was 93.5%, the “% Competition” value [9] was 19.1% and the “% Competition” value [10] was 15.3%. The IC50 [11] was 2.12 nM, the TOP blocking [11] was 96.5% and the IC50 [12] was 2.21 nM. It also gave a TOP blocking [12] of 96.5%, an IC50 [13] of 2.03 nM and a TOP blocking [13] of 97.5%. For the same binder, the IC50 [14] was 1.86 nM, the TOP blocking [14] was 98.6% and the “IC50 (read off the curve)” value [15] was roughly 2 nM. It also gave an IC50 [16] of 0.4 nM, a TOP blocking [16] of 97.6% and an IC50 [17] of 0.63 nM. For the same binder, the TOP blocking [17] was 99.7%.

B2: Reference anti-SIRPα antibody HEFLB (antibody, human IgG4, V domains shown)
VH: EVQLVQSGAEVKKPGESLRISCKASGYSFTSYWVHWVRQMPGKGLEWMGNIDPSDSDTHYSPSFQGHVTLSVDKSISTAYLQLSSLKASDTAMYYCVRGGTGTLAYFAYWGQGTLVTVSS
VL: DVVMTQSPLSLPVTLGQPASISCRSSQSLVHSYGNTYLYWFQQRPGQSPRLLIYRVSNRFSGVPDRFSGSGSGTDFTLKISRVEAEDVGVYYCFQGTHVPYTFGGGTKVEIK
B2: binds [18].
